# Experimental data as given in article doi:10.1101/2024.09.22.614354 (bioRxiv, 2024).
# Where no end group is shown, it is not given here. TMR = tetramethyl rhodamine dye
# T1: TMR-E2F1^TD (peptide of the E2F1 transactivation domain, N-labeled with tetramethyl rhodamine)
# T1 peptide: {TMR}-GEGIRDLFDCDFGDLTPLD
# Biological target: T1, TMR-E2F1^TD (peptide of the E2F1 …)
# Assay: fluorescence polarisation
row,Molecule,fold weaker binding relative to wild type [fold]
1,Rb^P E533K (domain or fragment) NTIQQLMMILNSASDQPSENLISYFNNCTVNPKESILKRVKDIGYIFKEKFAKAVGQGCVEIGSQRYKLGVRLYYRVMESMLKSEEERLSIQNFSKLLNDNIFHMSLLACALEVVMATYSRSTSQNLDSGTDLSFPWILNVLNLKAFDFYKVIKSFIKAEGNLTREMIKHLERCEHRIMESLAWLSDSPLFDLIKQSKDREGPTDHLESACPLNLPLQNNHTAADMYLSPVRSPKKKGSTTRVNSTANAETQATSAFQTQKPLKSTSLSLFYKKVYRLAYLRLNTLCERLLSEHPELEHIIWTLFQHTLQNEYELMRDRHLDQIMMCSMYGICKVKNIDLKFKIIVTAYKDLPHAVQETFKRVLIKEEEYDSIIVFYNSVFMQRLKTNILQYASTRPPTLSPIPHIPRS,59
2,Rb^P I703F (domain or fragment) NTIQQLMMILNSASDQPSENLISYFNNCTVNPKESILKRVKDIGYIFKEKFAKAVGQGCVEIGSQRYKLGVRLYYRVMESMLKSEEERLSIQNFSKLLNDNIFHMSLLACALEVVMATYSRSTSQNLDSGTDLSFPWILNVLNLKAFDFYKVIESFIKAEGNLTREMIKHLERCEHRIMESLAWLSDSPLFDLIKQSKDREGPTDHLESACPLNLPLQNNHTAADMYLSPVRSPKKKGSTTRVNSTANAETQATSAFQTQKPLKSTSLSLFYKKVYRLAYLRLNTLCERLLSEHPELEHIIWTLFQHTLQNEYELMRDRHLDQFMMCSMYGICKVKNIDLKFKIIVTAYKDLPHAVQETFKRVLIKEEEYDSIIVFYNSVFMQRLKTNILQYASTRPPTLSPIPHIPRS,~5
3,Rb^P S474I (domain or fragment) NTIQQLMMILNSASDQPSENLISYFNNCTVNPKESILKRVKDIGYIFKEKFAKAVGQGCVEIGSQRYKLGVRLYYRVMESMLKSEEERLSIQNFIKLLNDNIFHMSLLACALEVVMATYSRSTSQNLDSGTDLSFPWILNVLNLKAFDFYKVIESFIKAEGNLTREMIKHLERCEHRIMESLAWLSDSPLFDLIKQSKDREGPTDHLESACPLNLPLQNNHTAADMYLSPVRSPKKKGSTTRVNSTANAETQATSAFQTQKPLKSTSLSLFYKKVYRLAYLRLNTLCERLLSEHPELEHIIWTLFQHTLQNEYELMRDRHLDQIMMCSMYGICKVKNIDLKFKIIVTAYKDLPHAVQETFKRVLIKEEEYDSIIVFYNSVFMQRLKTNILQYASTRPPTLSPIPHIPRS,27
4,Rb^P K530I (domain or fragment) NTIQQLMMILNSASDQPSENLISYFNNCTVNPKESILKRVKDIGYIFKEKFAKAVGQGCVEIGSQRYKLGVRLYYRVMESMLKSEEERLSIQNFSKLLNDNIFHMSLLACALEVVMATYSRSTSQNLDSGTDLSFPWILNVLNLKAFDFYIVIESFIKAEGNLTREMIKHLERCEHRIMESLAWLSDSPLFDLIKQSKDREGPTDHLESACPLNLPLQNNHTAADMYLSPVRSPKKKGSTTRVNSTANAETQATSAFQTQKPLKSTSLSLFYKKVYRLAYLRLNTLCERLLSEHPELEHIIWTLFQHTLQNEYELMRDRHLDQIMMCSMYGICKVKNIDLKFKIIVTAYKDLPHAVQETFKRVLIKEEEYDSIIVFYNSVFMQRLKTNILQYASTRPPTLSPIPHIPRS,63
5,Rb^P S474R (domain or fragment) NTIQQLMMILNSASDQPSENLISYFNNCTVNPKESILKRVKDIGYIFKEKFAKAVGQGCVEIGSQRYKLGVRLYYRVMESMLKSEEERLSIQNFRKLLNDNIFHMSLLACALEVVMATYSRSTSQNLDSGTDLSFPWILNVLNLKAFDFYKVIESFIKAEGNLTREMIKHLERCEHRIMESLAWLSDSPLFDLIKQSKDREGPTDHLESACPLNLPLQNNHTAADMYLSPVRSPKKKGSTTRVNSTANAETQATSAFQTQKPLKSTSLSLFYKKVYRLAYLRLNTLCERLLSEHPELEHIIWTLFQHTLQNEYELMRDRHLDQIMMCSMYGICKVKNIDLKFKIIVTAYKDLPHAVQETFKRVLIKEEEYDSIIVFYNSVFMQRLKTNILQYASTRPPTLSPIPHIPRS,27
6,Rb^P S534R (domain or fragment) NTIQQLMMILNSASDQPSENLISYFNNCTVNPKESILKRVKDIGYIFKEKFAKAVGQGCVEIGSQRYKLGVRLYYRVMESMLKSEEERLSIQNFSKLLNDNIFHMSLLACALEVVMATYSRSTSQNLDSGTDLSFPWILNVLNLKAFDFYKVIERFIKAEGNLTREMIKHLERCEHRIMESLAWLSDSPLFDLIKQSKDREGPTDHLESACPLNLPLQNNHTAADMYLSPVRSPKKKGSTTRVNSTANAETQATSAFQTQKPLKSTSLSLFYKKVYRLAYLRLNTLCERLLSEHPELEHIIWTLFQHTLQNEYELMRDRHLDQIMMCSMYGICKVKNIDLKFKIIVTAYKDLPHAVQETFKRVLIKEEEYDSIIVFYNSVFMQRLKTNILQYASTRPPTLSPIPHIPRS,820
7,Rb^P K548N (domain or fragment) NTIQQLMMILNSASDQPSENLISYFNNCTVNPKESILKRVKDIGYIFKEKFAKAVGQGCVEIGSQRYKLGVRLYYRVMESMLKSEEERLSIQNFSKLLNDNIFHMSLLACALEVVMATYSRSTSQNLDSGTDLSFPWILNVLNLKAFDFYKVIESFIKAEGNLTREMINHLERCEHRIMESLAWLSDSPLFDLIKQSKDREGPTDHLESACPLNLPLQNNHTAADMYLSPVRSPKKKGSTTRVNSTANAETQATSAFQTQKPLKSTSLSLFYKKVYRLAYLRLNTLCERLLSEHPELEHIIWTLFQHTLQNEYELMRDRHLDQIMMCSMYGICKVKNIDLKFKIIVTAYKDLPHAVQETFKRVLIKEEEYDSIIVFYNSVFMQRLKTNILQYASTRPPTLSPIPHIPRS,10
8,Rb^P R656Q (domain or fragment) NTIQQLMMILNSASDQPSENLISYFNNCTVNPKESILKRVKDIGYIFKEKFAKAVGQGCVEIGSQRYKLGVRLYYRVMESMLKSEEERLSIQNFSKLLNDNIFHMSLLACALEVVMATYSRSTSQNLDSGTDLSFPWILNVLNLKAFDFYKVIESFIKAEGNLTREMIKHLERCEHRIMESLAWLSDSPLFDLIKQSKDREGPTDHLESACPLNLPLQNNHTAADMYLSPVRSPKKKGSTTRVNSTANAETQATSAFQTQKPLKSTSLSLFYKKVYQLAYLRLNTLCERLLSEHPELEHIIWTLFQHTLQNEYELMRDRHLDQIMMCSMYGICKVKNIDLKFKIIVTAYKDLPHAVQETFKRVLIKEEEYDSIIVFYNSVFMQRLKTNILQYASTRPPTLSPIPHIPRS,13
9,Rb^P H555Y (domain or fragment) NTIQQLMMILNSASDQPSENLISYFNNCTVNPKESILKRVKDIGYIFKEKFAKAVGQGCVEIGSQRYKLGVRLYYRVMESMLKSEEERLSIQNFSKLLNDNIFHMSLLACALEVVMATYSRSTSQNLDSGTDLSFPWILNVLNLKAFDFYKVIESFIKAEGNLTREMIKHLERCEYRIMESLAWLSDSPLFDLIKQSKDREGPTDHLESACPLNLPLQNNHTAADMYLSPVRSPKKKGSTTRVNSTANAETQATSAFQTQKPLKSTSLSLFYKKVYRLAYLRLNTLCERLLSEHPELEHIIWTLFQHTLQNEYELMRDRHLDQIMMCSMYGICKVKNIDLKFKIIVTAYKDLPHAVQETFKRVLIKEEEYDSIIVFYNSVFMQRLKTNILQYASTRPPTLSPIPHIPRS,12

# Biological target: T1, TMR-E2F1^TD (peptide of the E2F1 …)
# Assay: fluorescence polarisation
# Remark: another data set of the same source
Molecule,fold weaker binding at 37°C than at 25°C [fold],fold weaker binding relative to wild type [fold]
Rb^P I703F (domain or fragment) NTIQQLMMILNSASDQPSENLISYFNNCTVNPKESILKRVKDIGYIFKEKFAKAVGQGCVEIGSQRYKLGVRLYYRVMESMLKSEEERLSIQNFSKLLNDNIFHMSLLACALEVVMATYSRSTSQNLDSGTDLSFPWILNVLNLKAFDFYKVIESFIKAEGNLTREMIKHLERCEHRIMESLAWLSDSPLFDLIKQSKDREGPTDHLESACPLNLPLQNNHTAADMYLSPVRSPKKKGSTTRVNSTANAETQATSAFQTQKPLKSTSLSLFYKKVYRLAYLRLNTLCERLLSEHPELEHIIWTLFQHTLQNEYELMRDRHLDQFMMCSMYGICKVKNIDLKFKIIVTAYKDLPHAVQETFKRVLIKEEEYDSIIVFYNSVFMQRLKTNILQYASTRPPTLSPIPHIPRS,6,17

# Biological target: TMR-E2F1^TD (peptide of the E2F1 transactivation domain, N-labeled with tetramethyl rhodamine)
# Assay: fluorescence polarisation
row,Molecule,fold weaker binding relative to wild type [fold]
1,Rb^P E544K (from UniProt P06400 380-788) (domain or fragment),34
